Reference: the supplement of paper PMC9170038

Tested on: MS2 coat protein
Assay: apparent KD of MS2 coat protein; designed switch direction (-1 OFF switch, 1 ON switch): 1; higher = weaker reporter binding
In short: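 On Illumina chips, designed RNA switches with common flanks were made by stalled E. coli RNA polymerase. Titrations with SNAP-549-labelled MS2 coat protein, doubling from 0.7 or 1.5 nM to 3 µM, were done with no input, with 200 uM small-molecule ligand, or with an oligonucleotide input. Apparent KD is the median per design over clusters, from curve fits of normalised cluster fluorescence.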

[1] = input ligand: microRNA oligo, concentration not stated
[2] = Eterna round: R95, input ligand: microRNA oligo, concentration not stated
[3] = Eterna round: R95, input ligand: FMN 200 uM
[4] = Eterna round: R95, input ligand: none

Sequence	apparent KD of MS2 coat protein (input ligand: FMN 200 uM) [nM]	apparent KD of MS2 coat protein [1] [nM]	apparent KD of MS2 coat protein (input ligand: none) [nM]	apparent KD of MS2 coat protein [2] [nM]	apparent KD of MS2 coat protein [3] [nM]	apparent KD of MS2 coat protein [4] [nM]
GUAAUAAAGGAAGGAUAUGGGUAAACGGGAAUCCCAGAAGGUCCACAUGAGGAUCACCCAUGUGGUCCCGAAACCACGGGACCG [Enbive] (Eterna round: R96, puzzle: Same State NG 1)	84.2	60.5	75			
GUAAUAAUGUAAGGAUAUACAUGAGGAUUUCUCGUAGAAGGUACAAGACAUGAGGAUCACCCAUGUGUCGCUCCGUAGAGCGUA [Mat - Same State NG 1 - JL mod - D15] (Eterna round: R96, puzzle: Same State NG 1)	297	168	448			
GUACAGAUCAGAGGAUAUCACGUCGAAUAGACGUGAGAAGGCUGAUCACACAUGAAUAUUAGUACAUGAGGAUCACCCAUGUAC [SSNG1/15-A1] (Eterna round: R96, puzzle: Same State NG 1)	14.5	12.8	18			
GUACUACAUGAGGAUCACCCAUGUACAAAGGUACGAGGAUAUGCAUGUACGAAAGUAUAUGCAGAAGGCGUAGUAC [Pin2Pin #2] (puzzle: Same State 1)				23.3		
GUAGCAUACCGAGGAUAUUCAUAUUAACAUGAGGAUCACCCAUGUUUAGGUCGAUUACGACCUUGGGAGAAGGCGGAAUGCUAC [Xeonanis - 20 Mod33] (Eterna round: R96, puzzle: Same State NG 2)	12.3	15.4	25.5			
GUAGCAUACCGAGGAUAUUCAUAUUAUACAUGAGGAUCACCCAUGUGGCCACAUUAGUGGCCUUGGGAGAAGGCGGAAUGCUAC [Xeonanis - 20 Mod37] (Eterna round: R96, puzzle: Same State NG 2)	99.2	290	669			
GUAGUACAUGAGGAUCACCCAUGUUUCCUCCAAGAGUUCUUCGAGGAUAUGUCAUGGAAUCCACAAUAGAAGGCGGAGAACCAA [Eternabot solution 39] (Eterna round: R96, puzzle: Same State NG 3)	403	526	462			
GUGCGAGUGCCACAGGAUAUACGUGGAUCGACAUGAGGAUCACCCAUGUAUAUCCUAAUAAUUGCGUAGAAGGGUGGUCAGUCGG [Inzage] (Eterna round: R96, puzzle: Same State 2)	164	313	478			
GUGCGAGUGCCACAGGAUAUACGUGGAUCGACAUGAGGAUCACCCAUGUAUAUCCUAAUAAUUGCGUAGAAGGGUGGUCAGUCGG [Inzage] (puzzle: Same State 2)				74.8	136	105
GUGGUCAAUCAAGGAUAUGGAGCCUUAUUGGCUCCAGAAGGUGGGACAUGAGGAUCACCCAUGUGGCAGUGGUAAAAUGACCAC [Fiskers NG1ss - 37] (Eterna round: R96, puzzle: Same State NG 1)	35.6	56.8	63.4			
GUGGUCAGACAUGAGGAUCACCCAUGUGGAAUAAAUAACACAGAGGAUAUGGAAUAUAAAAUAUACCAGAAGGCUGGAUUGGUG (Eterna round: R96, puzzle: Same State NG 3)	131	188	268			
GUGGUCAGACAUGAGGAUCACCCAUGUGGAAUAAAUAACAGACAGGAUAUCAAAUAUAGGAUAUAUGAGAAGGGUCGAUUGGUG (Eterna round: R96, puzzle: Same State NG 3)		81				
GUUAAACAUGAGGAUCACCCAUGUAAUAAUAUGGGAGGAUAUGGGAAUUAAUUAAUUAAACCAGAAGGCCUAAUUG [Mat - Same State 1 - D84] (puzzle: Same State 1)				142	25.3	189
GUUACAUGAGGAUCACCCAUGUAUGUGUGGGAGUAAGUGUCUUAGGAUAUCUAUCAUUGAAUUUAAGAGAAGGAAGAUUGUUGU [JMF's solution 92] (Eterna round: R96, puzzle: Same State NG 3)		81.3				
GUUACAUGAGGAUCACCCAUGUAUGUGUGGGAGUAAGUGUCUUAGGAUAUCUAUGAUUUAAUUGAAGAGAAGGAAGAUUGUUGU [JMF's solution 84] (Eterna round: R96, puzzle: Same State NG 3)		99.1				
GUUACAUGAGGAUCACCCAUGUAUGUGUGGGAGUAAGUGUCUUAGGAUAUCUAUGAUUUAGUUUAAGAGAAGGAAGAUUGUUGU [JMF's solution 79] (Eterna round: R96, puzzle: Same State NG 3)	117	86.3	111			

Sequence	apparent KD of MS2 coat protein (input ligand: FMN 200 uM) [nM]	apparent KD of MS2 coat protein [1] [nM]	apparent KD of MS2 coat protein (input ligand: none) [nM]	apparent KD of MS2 coat protein [2] [nM]	apparent KD of MS2 coat protein [3] [nM]	apparent KD of MS2 coat protein [4] [nM]
GUUACAUGAGGAUCACCCAUGUAUGUGUGGGAGUAAGUGUCUUAGGAUAUCUAUUAUUUAAUUUUAGAGAAGGAAGAUUGUUGU [JMF's solution 27] (Eterna round: R96, puzzle: Same State NG 3)	138	105	120			
GUUACAUGAGGAUCACCCAUGUAUGUGUGGGAGUAAGUGUCUUAGGAUAUCUGUUAUUUAAGUUAAGAGAAGGAAGAUUGUUGU [JMF's solution 42] (Eterna round: R96, puzzle: Same State NG 3)	92.8	45.6	82.4			
GUUAUACAUGAGGAUCACCCAUGUCAAUGUAGUCGAGGAUAUGGGCAGCUAUGAGGCGUACUAGAAGGCGAAGAGU [JL-ss1-3.12 ViennaUCT mod] (puzzle: Same State 1)				374	164	309
UAAAGAUCGCGAGGAUAUCGCGAGGAUCACCCGUGAGAAGGCGCAGAGCCGAGGAUCACCCGGCUGAUCCUGAGGAGGAGGUAA (Eterna round: R96, puzzle: Same State NG 1)	249	410	556			
UAAAUAAAGUAAGGAUAUACAUGAGGAUCUCUCGUAGAAGGUACUAUACAUGAGGAUCACCCAUGUGCCGGUCCGUAGACUGGA [Mat - Same State NG 1 - JL mod - D8] (Eterna round: R96, puzzle: Same State NG 1)	475	107	68.8			
UACAAUCUAUCUGAGGAUAUCAUGAAGAAAACAUGAGGAUCACCCAUGUGCAGGAGAACUGCAAAUGAGAAGGCAGAUAGAUUGU [Mat - Same State 2 - Mod - D1] (puzzle: Same State 2)				12.9	9.46	13.4
UAGACAAGCUUUAUGUUCUUCCUAUUCCAACAUGAGGAUCACCCAUGUAGUCUGUCGAUUGUGAGUGUAGUUGAGAU [JR_SHM208A_Sub026] (puzzle: Sensor for hsa-mir-208a)				52	57.8	61.9
UAGGGACAUGAGGAUCACCCAUGUGCCUCAUAUGGAGAAACUCAGGAUAUGCUGAGGAUCACCCGGCAGAAGGGAGAUUUGAGG (Eterna round: R96, puzzle: Same State NG 3)	42.3	26.3	36.4			
UAGGUUGAGCAAGGAUAUCCAAGAUUGAUUCGUAUCGACAUGAGGAUCACCCAUGUCCCGAGAAGGGAGAAGGUGCGUCCAACC [Eternabot solution 30] (Eterna round: R96, puzzle: Same State NG 2)	15.4	27.9	42.3			
UAGUGAUUGCAAGGAUAUGCUAGUUUUUAUUUGUGUUUGAUAUCUAACAUGAGGAUCACCCAUGUGCAGAAGGUGCUUGAUUUG [JR_SSNG2_Sub077] (Eterna round: R96, puzzle: Same State NG 2)		68.6				
UAGUGUUUGCGAGGAUAUCGUUUGUUGAAGUUACGAGAAGGCGCUCUAAUUACAUGAGGAUCACCCAUGUCUGUGAUGCAUGAU [JR_SSNG1_Sub070] (Eterna round: R96, puzzle: Same State NG 1)	65.2	56.3	70			
UAUGAAUUACAAGGAUAUUAAUAACAUGAGGAUCACCCAUGUGGCUGUGAGAGUUAGAUAAGCUAUAAGAAGGUGUGUGUGUUU [JR_SSNG2_Sub093] (Eterna round: R96, puzzle: Same State NG 2)	93.1	196	267			
UAUUUAAUCAUAGGAUAUAGUGUGAAAUUUGGACUAGAAGGAUGUAACAUGAGGAUCACCCAUGUGGUAAGUGGGACACAUUGA [JR_SSNG1_Sub097] (Eterna round: R96, puzzle: Same State NG 1)		86.7				
UCAAGCGAGAGGCUCGUCUUAUGUUUGGUACAUGAGGAUCACCCAUGUUAGGGACGAUUUAGUUAGAUGGAAUGGAG [JR_SHM208A_Sub034] (puzzle: Sensor for hsa-mir-208a)				148	57.3	69.6
UCAGUCAUGUAAGGAUAUGCAGCCGAAACGGCUGCAGAAGGUACUAUAAUUACAUGAGGAUCACCCAUGUUAUAAAAUAAAUAU [Mat - Same State NG 1 - JL mod - D65] (Eterna round: R96, puzzle: Same State NG 1)	18.4	36	76.6			
UCGGGCGUACUUGCUGACAUGAGGAUCACCCAUGUCCUUGGGCAGGAUAUGGUUCCGUUUCGGUUCCAGAAGGUCCUGGCUGCU [salish99_SSNG3_r04_318] (Eterna round: R96, puzzle: Same State NG 3)	18.1	24.4	25.5			
